In IntAct's records for PubMed 29039417:

B1: Protein PTHB1 (Homo sapiens), Q3SYG4 (parent)
chain: MSLFKARDWWSTILGDKEEFDQGCLCLANVDNSGNGQDKIIVGSFMGYLRIFSPHPAKTGDGAQAEDLLLEVDLRDPVLQVEVGKFVSGTEMLHLAVLHSRKLCVYSVSGTLGNVEHGNQCQMKLMYEHNLQRTACNMTYGSFGGVKGRDLICIQSMDGMLMVFEQESYAFGRFLPGFLLPGPLAYSSRTDSFLTVSSCQQVESYKYQVLAFATDADKRQETEQQKLGSGKRLVVDWTLNIGEQALDICIVSFNQSASSVFVLGERNFFCLKDNGQIRFMKKLDWSPSCFLPYCSVSEGTINTLIGNHNNMLHIYQDVTLKWATQLPHIPVAVRVGCLHDLKGVIVTLSDDGHLQCSYLGTDPSLFQAPNVQSRELNYDELDVEMKELQKIIKDVNKSQGVWPMTEREDDLNVSVVVSPNFDSVSQATDVEVGTDLVPSVTVKVTLQNRVILQKAKLSVYVQPPLELTCDQFTFEFMTPDLTRTVSFSVYLKRSYTPSELEGNAVVSYSRPTDRNPDGIPRVIQCKFRLPLKLICLPGQPSKTASHKITIDTNKSPVSLLSLFPGFASQSDDDQVNVMGFHFLGGARITVLASKTSQRYRIQSEQFEDLWLITNELILRLQEYFEKQGVKDFACSFSGSIPLQEYFELIDHHFELRINGEKLEELLSERAVQFRAIQRRLLARFKDKTPAPLQHLDTLLDGTYKQVIALADAVEENQGNLFQSFTRLKSATHLVILLIALWQKLSADQVAILEAAFLPLQEDTQELGWEETVDAAISHLLKTCLSKSSKEQALNLNSQLNIPKDTSQLKKHITLLCDRLSKGGRLCLSTDAAAPQTMVMPGGCTTIPESDLEERSVEQDSTELFTNHRHLTAETPRPEVSPLQGVSE
partner: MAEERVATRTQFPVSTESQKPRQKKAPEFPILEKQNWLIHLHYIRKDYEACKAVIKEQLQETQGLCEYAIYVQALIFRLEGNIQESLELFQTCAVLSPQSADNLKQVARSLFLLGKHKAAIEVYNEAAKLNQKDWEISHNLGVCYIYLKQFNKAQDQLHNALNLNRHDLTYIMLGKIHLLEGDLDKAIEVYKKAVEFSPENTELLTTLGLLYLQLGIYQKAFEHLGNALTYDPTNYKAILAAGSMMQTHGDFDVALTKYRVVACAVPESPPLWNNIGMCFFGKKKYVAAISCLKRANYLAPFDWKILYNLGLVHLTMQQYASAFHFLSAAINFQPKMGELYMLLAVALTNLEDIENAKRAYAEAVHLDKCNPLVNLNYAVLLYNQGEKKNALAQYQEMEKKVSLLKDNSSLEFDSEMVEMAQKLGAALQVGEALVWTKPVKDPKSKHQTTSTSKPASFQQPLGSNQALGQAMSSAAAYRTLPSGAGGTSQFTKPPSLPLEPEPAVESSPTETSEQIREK

Variants of: B1
Details: with bbs4_human BBS4, Q96RK4

| Variant | effect of a mutation on the interaction |
| --- | --- |
| S635K | with no effect |
| S635E | with no effect |
| F632K | with no effect |
| F632E | with no effect |
| F632A | with no effect |
| L662A | with no effect |
| G638E | with no effect |
| G638A | with no effect |
| L648A | with no effect |
| L648E | with no effect |
| S639K | with no effect |
| S639A | with no effect |
| S639E | with no effect |
| F646E | with no effect |
| F646A | with no effect |
| F636K | with no effect |
| F636E | with no effect |
| A633E | with no effect |
| E660A | with no effect |
| E660K | with no effect |
| L655E | with no effect |

| Variant | effect of a mutation on the interaction |
| --- | --- |
| L655A | with no effect |
| I640K | with no effect |
| I640A | with no effect |
| E644K | with no effect |
| Y645K | with no effect |
| Y645E | with no effect |
| Y645A | with no effect |
| Q643E | with no effect |
| Q643K | with no effect |
| Q643A | with no effect |
| H652A | with no effect |
| H652K | with no effect |
| P641A | with no effect |
| P641K | with no effect |
| P641E | with no effect |
| G659K | with no effect |
| G659A | with no effect |
| G659E | with no effect |
| D650E | with no effect |
| D650A | with no effect |
| R656K | with no effect |

| Variant | effect of a mutation on the interaction |
| --- | --- |
| R656A | with no effect |
| E654K | disrupting interaction strength |
| E654A | disrupting interaction strength |
| I649K | with no effect |
| I657A | with no effect |
| I657E | with no effect |
| H651K | with no effect |
| H651E | with no effect |
| S637E | with no effect |
| S637K | with no effect |
| S637A | with no effect |
| D631K | with no effect |
| D631A | with no effect |
| D631E | with no effect |
| E647G | disrupting interaction strength |
| E647K | disrupting interaction strength |
| F653A | with no effect |
| F653E | with no effect |
| C634A | with no effect |
| L642E | with no effect |

Further lines, results first:

| effect of a mutation on the interaction | Variant |
| --- | --- |
| with no effect | S635A |
| with no effect | G638K |
| with no effect | L648K |
| with no effect | F646K |
| with no effect | F636A |
| with no effect | A633K |
| with no effect | K630A |
| with no effect | K630E |
| with no effect | K661A |
| with no effect | K661E |
| with no effect | L655K |
| with no effect | I640E |
| with no effect | E644A |
| with no effect | H652E |
| disrupting interaction strength | G659D |
| with no effect | D650K |
| with no effect | R656E |
| with no effect | I649A |
| with no effect | I649E |
| with no effect | I657K |
| with no effect | H651A |
| with no effect | E647A |
| with no effect | F653K |
| with no effect | N658E |
| with no effect | N658K |
| with no effect | N658A |
| with no effect | C634E |
| with no effect | C634K |
| with no effect | L642A |
| with no effect | L642K |
